B1: VLX4 IgG4 S228P (xi) (antibody)
heavy: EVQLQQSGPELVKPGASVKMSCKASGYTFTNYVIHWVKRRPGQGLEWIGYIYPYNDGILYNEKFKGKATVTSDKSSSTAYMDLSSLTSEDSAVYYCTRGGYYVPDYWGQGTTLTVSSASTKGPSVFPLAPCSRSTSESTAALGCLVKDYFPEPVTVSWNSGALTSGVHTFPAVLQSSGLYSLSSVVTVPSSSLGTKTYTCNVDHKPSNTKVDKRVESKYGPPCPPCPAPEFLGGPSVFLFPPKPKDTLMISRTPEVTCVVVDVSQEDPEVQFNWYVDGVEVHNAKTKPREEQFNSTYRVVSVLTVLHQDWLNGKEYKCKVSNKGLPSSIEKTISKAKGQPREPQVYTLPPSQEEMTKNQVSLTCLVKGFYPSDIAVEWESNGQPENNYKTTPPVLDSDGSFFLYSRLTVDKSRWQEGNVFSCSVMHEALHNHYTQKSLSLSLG
light: DVLMTQTPLSLPVNLGDQASISCRSRQSIVHTNGNTYLGWFLQKPGQSPKLLIYKVSNRFSGVPDRFSGSGSGTDFTLTISRVEAEDLGVYYCFQGSHVPYTFGGGTKLEIKRTVAAPSVFIFPPSDEQLKSGTASVVCLLNNFYPREAKVQWKVDNALQSGNSQESVTEQDSKDSTYSLSSTLTLSKADYEKHKVYACEVTHQGLSSPVTKSFNRGEC
B2: VLX4 IgG2 (xi) (antibody)
heavy: EVQLQQSGPELVKPGASVKMSCKASGYTFTNYVIHWVKRRPGQGLEWIGYIYPYNDGILYNEKFKGKATVTSDKSSSTAYMDLSSLTSEDSAVYYCTRGGYYVPDYWGQGTTLTVSSASTKGPSVFPLAPCSRSTSESTAALGCLVKDYFPEPVTVSWNSGALTSGVHTFPAVLQSSGLYSLSSVVTVPSSNFGTQTYTCNVDHKPSNTKVDKTVERKCCVECPPCPAPPVAGPSVFLFPPKPKDTLMISRTPEVTCVVVDVSHEDPEVQFNWYVDGVEVHNAKTKPREEQFNSTFRVVSVLTVVHQDWLNGKEYKCKVSNKGLPAPIEKTISKTKGQPREPQVYTLPPSREEMTKNQVSLTCLVKGFYPSDIAVEWESNGQPENNYKTTPPMLDSDGSFFLYSKLTVDKSRWQQGNVFSCSVMHEALHNHYTQKSLSLSPGK
light: B1 light
B3: VLX4 IgG4 PE(xi) (antibody)
heavy: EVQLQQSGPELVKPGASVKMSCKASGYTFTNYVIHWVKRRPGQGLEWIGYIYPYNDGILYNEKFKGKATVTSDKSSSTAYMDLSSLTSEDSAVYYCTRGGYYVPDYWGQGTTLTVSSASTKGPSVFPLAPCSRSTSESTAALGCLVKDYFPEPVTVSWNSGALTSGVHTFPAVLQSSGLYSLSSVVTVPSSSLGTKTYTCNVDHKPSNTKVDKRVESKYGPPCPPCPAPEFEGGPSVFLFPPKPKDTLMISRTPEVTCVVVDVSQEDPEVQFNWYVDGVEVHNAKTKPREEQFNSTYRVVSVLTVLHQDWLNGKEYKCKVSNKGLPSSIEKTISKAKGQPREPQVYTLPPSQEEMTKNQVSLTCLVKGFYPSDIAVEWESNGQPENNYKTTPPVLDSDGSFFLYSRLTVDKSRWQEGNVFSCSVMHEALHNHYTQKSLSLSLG
light: B1 light
notes: Murine-human chimera; also called VLX4 IgG4PE chimeric mAb

target: T1, human CD47 (human, UniProt Q08722 19-292); experiment: cell-based ELISA on OV10 hCD47 cells
T1 construct: On the surface of OV10 cells transfected with human CD47, fresh human RBCs, Jurkat T cells or human breast cancer tissue; also called hCD47; integrin-associated protein (IAP)
Protocol: Binding activities of VLX4, VLX8, and VLX9 chimeric (murine-human) and humanized mAbs were determined using a cell-based ELISA assay with human OV10 hCD47 cells expressing cell surface human CD47. OV10 hCD47 cells were grown in IMDM medium containing 10% heat inactivated fetal bovine serum (BioWest; S01520). One day before assay, 3×10⁴ cells were plated in 96 well cell bind plates (Corning #3300, VWR #66025-626) and were 95-100% confluent at the time of assay. Cells were washed and various concentrations of purified antibodies added in IMDM 37° C. for 1 hr in […]. Cells were then washed with media and incubated for an additional hour at 37° C. with HRP labeled secondary anti-human antibody (Promega) diluted 1/2500 in media. Cells were washed three times with PBS, and the peroxidase substrate 3,3′, 5,5′-tetramethylbenzidine is added (Sigma; Catalog #T4444). Reactions were terminated by the addition of HCl to 0.7N, and absorbance at 450 nm is determined using a Tecan model Infinite M200 plate reader. The apparent binding affinities of these clones to human OV10 hCD47 cells was determined by non-linear fit (Prism GraphPad software).

T1 sequence (Q08722 other isoform, or with tags, fused parts or gaps limits assumed): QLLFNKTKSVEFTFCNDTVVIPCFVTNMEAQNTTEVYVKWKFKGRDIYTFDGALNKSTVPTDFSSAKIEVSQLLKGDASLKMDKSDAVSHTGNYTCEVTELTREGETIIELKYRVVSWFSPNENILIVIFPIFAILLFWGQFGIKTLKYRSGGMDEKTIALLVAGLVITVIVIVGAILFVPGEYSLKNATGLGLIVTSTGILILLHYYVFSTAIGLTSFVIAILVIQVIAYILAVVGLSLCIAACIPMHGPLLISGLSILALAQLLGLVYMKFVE

Row | Kd [nM] | Binder
1 | 0.214 | B1
2 | 0.431 | B2
3 | 0.225 | B3

target: T1, human CD47; experiment: flow cytometry on human RBCs
Protocol: Binding activities of chimeric (murine-human) and humanized VLX4, VLX8, and VLX9 mAbs to human CD47 on hRBCs were also determined using flow cytometry. hRBCs were incubated for 60 min on at 37° C. with various concentrations of the chimeric or humanized antibodies in a solution of phosphate buffered saline, pH 7.2, 2.5 mM EDTA (PBS+E). Cells were then washed with cold PBS+E, and incubated for an additional hour on ice with FITC labeled donkey anti-human antibody (Jackson Immuno Research Labs, West Grove, Pa.; Catalogue #709-096-149) in PBS+E. Cells were washed with PBS+E, antibody binding analyzed using a C6 Accuri Flow Cytometer (Becton Dickinson) and apparent binding affinities determined by non-linear fit (Prism GraphPad software) of the median fluorescence intensities at the various antibody concentrations.

Row | Kd [nM] | Binder
4 | 0.099 | B1
5 | 0.184 | B2
6 | 0.303 | B3
